Molecular target: T1, His-tagged Gp44, full length (1–237) (bacteriophage SPO1)
T1 construct: Gp44, product of gene 44 of bacteriophage SPO1 of Bacillus subtilis, full length, residues 1-237, 27 kDa; The purified constructs came from pET-46 EK/LIC, which adds an N-terminal His-tag; C-terminal His-tagged and tag-free constructs (pDE2) were also made; PDB 6L6V holds only residues 1-55; also called Gp44^(1–237); recombinant Gp44; not shown: His-tag, N-terminal, kept
Test: ITC; MicroCal PEAQ-ITC, 25°C, dialysis buffer; 30 μM β or β′ subunit in the cell, 300 μM Gp44 in the syringe, 19 injections of 2 μL at 120 s intervals
Details: both partners purified

B1: recombinant RNAP β subunit used in ITC (species not named) (natural protein)
chain: MTGQLVQYGRHRQRRSYARISEVLELPNLIEIQTSSYQWFLDEGLREMFQDISPIEDFTGNLSLEFIDYSLGEPKYPVEESKERDVTYSAPLRVKVRLINKETGEVKDQDVFMGDFPIMTDTGTFIINGAERVIVSQLVRSPSVYFSGKVDKNGKKGFTATVIPNRGAWLEYETDAKDVVYVRIDRTRKLPVTVLLRALGFGSDQEILDLIGENEYLRNTLDKDNTENSDKALLEIYERLRPGEPPTVENAKSLLDSRFFDPKRYDLANVGRYKINKKLHIKNRLFNQRLAETLVDPETGEILAEKGQILDRRTLDKVLPYLENGIGFRKLYPNGGVVEDEVTLQSIKIFAPTDQEGEQVINVIGNAYIEEEIKNITPADIISSISYFFNLLHGVGDTDDIDHLGNRRLRSVGELLQNQFRIGLSRMERVVRERMSIQDTNTITPQQLINIRPVIASIKEFFGSSQLSQFMDQTNPLAELTHKRRLSALGPGGLTRERAGMEVRDVHYSHYGRMCPIETPEGPNIGLINSLSSYAKVNRFGFIETPYRRVDPETGKVTGRIDYLTADEEDNYVVAQANARLDDEGAFIDDSIVARFRGENTVVSRNRVDYMDVSPKQVVSAATACIPFLENDDSNRALMGANMQRQAVPLMQPEAPFVGTGMEYVSGKDSGAAVICKHPGIVERVEAKNVWVRRYEEVDGQKVKGNLDKYSLLKFVRSNQGTCYNQRPIVSVGDEVVKGEILADGPSMELGELALGRNVMVGFMTWDGYNYEDAIIMSERLVKDDVYTSIHIEEYESEARDTKLGPEEITRDIPNVGEDALRNLDDRGIIRIGAEVKDGDLLVGKVTPKGVTELTAEERLLHAIFGEKAREVRDTSLRVPHGGGGIIHDVKVFNREDGDELPPGVNQLVRVYIVQKRKISEGDKMAGRHGNKGVISKILPEEDMPYLPDGTPIDIMLNPLGVPSRMNIGQVLELHMGMAARYLGIHIASPVFDGAREEDVWETLEEAGMSRDAKTVLYDGRTGEPFDNRVSVGIMYMIKLAHMVDDKLHARSTGPYSLVTQQPLGGKAQFGGQRFGEMEVWALEAYGAAYTLQEILTVKSDDVVGRVKTYEAIVKGDNVPEPGVPESFKVLIKELQSLGMDVKILSGDEEEIEMRDLEDEEDAKQADGLALSGDEEPEETASADVERDVVTKE
Question: How did the Kd turn out when B1 was run?
Answer: The Kd was 3.46 ± 0.27 µM.

Source: article PMC8208478, “A Bacteriophage DNA Mimic Protein Employs a Non-specific Strategy to Inhibit the Bacterial RNA Polymerase” (Frontiers in Microbiology, 2021)
